Substitutions are numbered along the chain they refer to.
B1: DARPin® protein #1, monovalent CD33 specific binding protein (designed binder)
chain: MRGSHHHHHHGSDLGWKLLLAASRGQDDEVRILLAAGADVNAKDIDEGYTPLHIAAYYGHLEIVEVLLKAGADVNAKDRYGKTPLHLAAISGHEDIAEVLLKAGADVNAQDDKGDTPADLAADYGHEDIAEVLQKAA
notes: Crude extract in the HTRF; also called DARPin® protein #91 [sic]
B2: DARPin® protein #14, monovalent CD33 specific binding protein (designed binder)
chain: MRGSHHHHHHGSDLGWKLLNAAIAGQDDEVRILLAAGADVNAKDTEYGWTPLHIAASDGHLEIVEVLLKAGADVNAKDYAGSTPLHAAAFVGHLEIVEVLLKAGADVNAQDHQGQTPADLAAQQGHVDIAEVLQKAA
notes: Crude extract in the HTRF
B3: DARPin® protein #9 in TCE format (formatted with a CD3-specific ankyrin repeat domain) (designed binder)
chain: MRGSHHHHHHGSDLGYKLLWAASAGQDDEVRILLAAGADVNAKDKDGATPLHFAAAKGHLEIVEVLLKAGADVNAKDNRGATPLHYVAAASGHLEIVEVLLKAGADVNAQDEWGNTPADLAAIYGHGDIAEVLQKAA
notes: Crude extract HTRF construct also carried a C-terminal Flag tag; not shown: which one,
B4: DARPin® protein #7 in TCE format (formatted with a CD3-specific ankyrin repeat domain) (designed binder)
chain: MRGSHHHHHHGSDLGLKLLRAAYDGQDDEVRILLAAGADVNAKDWQGFTPLHYAAVLGHLEIVEVLLKAGADVNAKDQEGATPLHLAALHGHLEIVEVLLKAGADVNAQDESGWTPADLAAKWGHEDIAEVLQKAA
notes: as for B3
B5: DARPin® protein #15 in TCE format (formatted with a CD3-specific ankyrin repeat domain) (designed binder)
chain: MRGSHHHHHHGSDLGKKLLQAARAGQLDEVRELLKAGADVNAKDLIGWTPLHLAAHYGHLEIVEVLLKAGADVNAKDAQGWTPLHIAAWEGHLEIVEVLLKAGADVNAKDWTGETPLHLAAFEGHLEIVEVLLKAGADVNAQDKSGKTPADLAARAGHQDIAEVLQKAA
notes: as for B3
B6: DARPin® protein #5 in TCE format (formatted with a CD3-specific ankyrin repeat domain) (designed binder)
chain: B5 chain with G15S, L45Q, W48Q, H56Q, Y57S, A78T, Q79E, I86V, F122Y, E123Q
notes: as for B3
B7: DARPin® protein #3 in TCE format (formatted with a CD3-specific ankyrin repeat domain) (designed binder)
chain: MRGSHHHHHHGSDLGVKLLRAAFHGQDDEVRILLAAGADVNAKDTDGETPLHYAAQFGHLEIVEVLLKAGADVNAKDAYGATPLHWAAWHGHLEIVEVLLKAGADVNAQDVSGATPADLAAKVGHEDIAEVLQKAA
notes: as for B3
B8: DARPin® protein #8 in TCE format (formatted with a CD3-specific ankyrin repeat domain) (designed binder)
chain: MRGSHHHHHHGSDLGWKLLSAATLGQDDEVRILLAAGADVNAKDEWGKTPLHWAASTGHLEIVEVLLKAGADVNAKDLWGHTPLHEAAAKGHLEIVEVLLKAGADGNAQDNIGDTPADLAAYQGHEDIAEVLQKAA
notes: as for B3
B9: DARPin® protein #1 in TCE format (formatted with a CD3-specific ankyrin repeat domain) (designed binder)
chain: B1 chain
notes: not shown: which one,
B10: DARPin® protein #16 in TCE format (formatted with a CD3-specific ankyrin repeat domain) (designed binder)
chain: MRGSHHHHHHGSDLGKKLLQAARAGQLDEVRELLKAGADVNAKDHQGETPLHLAASQGHLEIVEVLLKAGADVNAKDLAGYTPLHLAAWTGHLEIVEVLLKAGADVNAKDQWGRTPLHIAAASGHLEIVEVLLKAGADVNAQDKSGKTPADLAARAGHQDIAEVLQKAA
notes: as for B3
B11: DARPin® protein #14 in TCE format (formatted with a CD3-specific ankyrin repeat domain) (designed binder)
chain: B2 chain
notes: as for B3

Legend:
[1] = molecular target: T1, biotinylated splice variant of the extracellular domain of human CD33 (residues 140-259, constant domain … (human, UniProt P20138 140-259, biotinylated with BirA-GST (Avi tag))); assay: HTRF, 6 nM biotinylated hCD33-C2-Fc(kih)-Avi, Strep-Tb and anti-6His-d2
T1 construct: Bought from Evitria; a second Fc chain may be present, not described; also called splice variant CD33; spliced variant; not shown: C-terminal Fc tag and Avi tag
T1 chain: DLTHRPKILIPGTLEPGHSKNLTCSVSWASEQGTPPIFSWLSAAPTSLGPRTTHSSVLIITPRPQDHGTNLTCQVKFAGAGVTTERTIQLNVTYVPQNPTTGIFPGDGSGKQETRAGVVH
Protocol: First, a binding experiment has been performed against full-length (V/C2 domains) and truncated CD33 (C2 domain) by HTRF, using crude extracts of the three CD33-specific binding proteins DARPin® protein #1. DARPin® protein #9 and DARPin® protein #14. Binding to the CD33 target was detected using Strep-Tb and anti-His-D2 HTRF reagents. In brief, crude extract of DARPi® protein #1, DARPin® protein #9 and DARPin® protein #14 was diluted 1:250 (final 1:1000) with PBSTB and added into a 384-well plate (PerkinElmer, 6008280). Then, the biotinylated target_hCD33-Fc(kih)-Avi (full-length CD33; purchased from Evitria) and hCD33-C2-Fc(kih)-Avi (truncated CD33; purchased from Evitria) respectively was diluted to 8 nM (final 6 nM) and mixed with the HTRF reagents Mab Anti-6His-d2 and Strep-Tb, both 1:200 diluted (final 1:400). As depicted in FIG. 5, all three CD33 specific binding proteins DARPin® protein #1. DARPin® protein #9 and DARPin® protein #14 show binding to the full-length CD33 but only DARPin® protein #9 binds to the truncated CD33 target.

[2] = molecular target: T1, biotinylated splice variant of the …; assay: SPR (ProteOn XPR36), biotinylated splice variant CD33 on NLC chip, DARPin at 50 nM, single trace
[3] = molecular target: T1, biotinylated splice variant of the …; assay: SPR (ProteOn XPR36), biotinylated splice variant CD33 on NLC chip

Binder	binding result [3]	also measured
B1		binding result [1]: no binding
B2		binding result [1]: no binding
B3		Kd [2]: 1.9 nM
B4	no binding (tested: 50 nM)	
B5	no binding (tested: 50 nM)	
B6	no binding (tested: 50 nM)	
B7	no binding (tested: 50 nM)	
B8	no binding (tested: 50 nM)	
B9	no binding (tested: 50 nM)	
B10	no binding (tested: 50 nM)	
B11	no binding (tested: 50 nM)	

— patent publication US20240317852A1 (Molecular Partners, published 2024)
